For assay [1], the target named is T1, human CD3 (human, UniProt P07766 23-207).
T1 construct: whole, on cells; also called CD3 on human T-cells
Put plainly: cell binding, human CD3, 50 nM SFA present.

Assay [2] deals with Folate receptor-alpha (FOLR1) (human) (UniProt P15328). Put plainly: cell binding, FOLRα-expressing KB cells; through the folate moiety.
In assay [3] the target is T1, human CD3. Put plainly: summary table; cell binding EC50, human PBMC.
For assay [4], the target named is T1, human CD3. Put plainly: cell binding, human PBMC.
The target in assay [5] is T2, cyno CD3 (cyno (cynomolgus monkey), UniProt Q95LI5 22-198).
T2 construct: whole, on cells; also called CD3 on Cynomolgus T-cells
T2 sequence (Q95LI5 22-198): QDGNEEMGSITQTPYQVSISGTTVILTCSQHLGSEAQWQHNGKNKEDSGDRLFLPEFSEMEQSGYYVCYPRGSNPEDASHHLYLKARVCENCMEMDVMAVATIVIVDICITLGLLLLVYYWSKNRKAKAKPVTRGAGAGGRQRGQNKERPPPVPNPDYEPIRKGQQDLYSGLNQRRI
Put plainly: cell binding, cyno CD3 (activated cyno PBMC); cyno CD3 (second number of the cell). As for the experimental part: (§1) Testing for CD3 binding with activated human and cyno PBMC: To distinguish between the humanized anti-CD3 antibodies generated, binding to human CD3 was tested using activated human PBMCs (n=2). The activation of PBMCs and subsequent fluorescence-based CD3 binding assays were followed as described previously (see for example, Angew Chem Int Ed Engl, 52(46):12101-12104, 2013). […] The binding of the remaining 6 humanized antibodies to both human and cyno CD3 using activated human and cyno PBMCs, respectively, was titrated. […] The six (6) humanized anti-CD3 antibodies were obtained as follows: Fab1, Fab2 and Fab3 wildtype were generated by combination of LC ((vL1.2+CL); (SEQ.ID. NO:7)) and HC ((vH1.2+CH1); (SEQ.ID. NO:1)), ((vH1.1+CH1); (SEQ.ID. NO:2)) and ((vH1.0+CH1); (SEQ.ID. NO:3)) respectively. Fab4, Fab 5 and Fab6 wildtype were generated by combination of LC ((vL1.1+CL); (SEQ.ID. NO:8)) and HC ((vH1.2+CH1); (SEQ.ID. NO:1)), ((vH1.1+CH1); (SEQ.ID. NO:2)) and ((vH1.0+CH1); (SEQ.ID. NO:3)) respectively.
(§2) Binding of Folate-conjugated Fabs to human and cyno CD3: Binding of E. coli produced and Folate-conjugated low-affinity variants of humanized anti-CD3 Fabs was performed as described in the above Examples.

The target of assay [6] is Folate receptor-alpha (FOLR1) (human) (UniProt P15328). Put plainly: summary table; FRα affinity over CD3 affinity.
For assay [7], the target named is T1, human CD3. Put plainly: cell binding, human CD3 (activated human PBMC); human CD3 (first number of the cell). As for the experimental part: as §1, §2
For assay [8], the target named is T1, human CD3. Put plainly: cell binding, activated human PBMC.
For assay [9], the target named is T2, cyno CD3. Put plainly: cell binding, cynomolgus T-cells.
Assay [10] has as its target T1, human CD3. Put plainly: cell binding, activated human PBMC; E. coli protein.
For assay [11], the target named is T2, cyno CD3. Put plainly: cell binding, activated cyno PBMC.
The target in assay [12] is Folate receptor-alpha (FOLR1) (human) (UniProt P15328). Put plainly: summary table; cell binding through the folate moiety.
Assay [13] shares this target. Put plainly: cell binding, SKOV-3 cells with 50 nM SFA; through the folate moiety; SKOV-3 cells, with 50 nM SFA; binding through the conjugated folate.
Assay [14] addresses T2, cyno CD3. Put plainly: cell binding, activated cyno PBMC; E. coli protein.
Assay [15] deals with T1, human CD3. Put plainly: cell binding, human T-cells. The arrangement: Bmax: unit not given here.
The next assay addresses Folate receptor beta (human, UniProt P14207 17-230). Put plainly: cell-based or functional assay.
Assay [16] addresses T1, human CD3. Put plainly: cell binding, human PBMC, 20 nM SFA present.
The target of assay [17] is T1, human CD3. Put plainly: cell binding, human T-cells; assigned to the Bi5KPEG-BiFolate / BiFolate pair from Table 37.
The target in assay [18] is T1, human CD3. Put plainly: cell binding, activated human PBMC. The source holds these as a separate data set.
For assay [19], the target named is T1, human CD3. Put plainly: flow cytometry (MFI) on activated human PBMC, Fab in HEK293 culture medium, concentration not shown. As for the experimental part: as §1
In assay [20] the target is T2, cyno CD3. Put plainly: flow cytometry (MFI) titration on cyno CD3 (activated cyno PBMC), HEK293 culture supernatant. As for the experimental part:
(§3) Screening for human and cyno CD3 binding: HEK293 culture supernatants were directly used to test for binding to human CD3 in the screening phase. In Round 1 experiment, initially 35 clones were tested for binding to human CD3 at three different protein concentrations, and 13 were selected for detailed binding assays to both human and cyno CD3. An 11-point binding titration curve was generated to both human (FIG. 4A) and cyno CD3 (FIG. 4B) for each clone. […] Similarly, 43 clones were screened in Round 2 experiment. After two-stage screening as described above for Round 1, 11 low-affinity variants were obtained, of which 4 are represented as shown in FIGS. 5A-5B
(In general: A flow cytometer gives signals particle by particle.)

For assay [21], the target named is T1, human CD3. Put plainly: flow cytometry (MFI) titration on human CD3 (activated human PBMC), HEK293 culture supernatant. As for the experimental part: as §3
The target of assay [22] is T2, cyno CD3. Put plainly: flow cytometry (MFI), 11-point titration on cyno CD3 (activated cyno PBMC), HEK293 culture supernatant. As for the experimental part: as §3
The target in assay [23] is T1, human CD3. Put plainly: flow cytometry (MFI), 11-point titration on human CD3 (activated human PBMC), HEK293 culture supernatant. The protocol:
as §3

Changes are numbered by the printed parent chain.

Chain of Folate receptor-alpha (FOLR1) (human) (P15328 25-234): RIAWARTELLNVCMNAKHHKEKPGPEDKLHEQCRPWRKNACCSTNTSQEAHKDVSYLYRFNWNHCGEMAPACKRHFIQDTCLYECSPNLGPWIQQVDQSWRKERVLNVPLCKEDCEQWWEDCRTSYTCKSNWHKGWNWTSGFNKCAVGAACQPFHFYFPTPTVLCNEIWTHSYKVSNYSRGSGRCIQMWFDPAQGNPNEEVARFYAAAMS
T1 sequence (P07766 23-207): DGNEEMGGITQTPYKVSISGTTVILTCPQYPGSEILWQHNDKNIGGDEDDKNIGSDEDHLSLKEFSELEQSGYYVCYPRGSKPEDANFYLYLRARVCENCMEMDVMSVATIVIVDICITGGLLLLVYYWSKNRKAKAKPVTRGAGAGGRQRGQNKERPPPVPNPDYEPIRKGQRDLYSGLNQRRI
Chain of Folate receptor beta (P14207 17-230): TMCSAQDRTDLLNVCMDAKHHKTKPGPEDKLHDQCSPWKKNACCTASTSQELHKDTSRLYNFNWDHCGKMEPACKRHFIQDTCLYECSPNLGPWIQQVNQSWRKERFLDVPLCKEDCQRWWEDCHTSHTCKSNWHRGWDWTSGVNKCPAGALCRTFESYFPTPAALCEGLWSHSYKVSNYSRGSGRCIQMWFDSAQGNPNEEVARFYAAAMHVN

B1: Fab1-HK129-Folate (Fab, V domains shown)
VH: EVQLVESGGGLVQPGGSLRLSCAASGFTFNTYAMNWVRQAPGKGLEWVARIRSKYNNYATYYADSVKDRFTISRDDSKNILYLQMNSLKTEDTAVYYCVRHGNFGNSYVSWFAYWGQGTLVTVSS
VL: QAVVTQEPSLTVSPGGTVTLTCRSSTGAVTTSNYANWVQQKPGQAPRGLIGGTNKRAPGTPARFSGSLLGGKAALTLSGAQPEDEAEYYCALWYSNLWVFGGGTKLTVLG
modifications: pAF at HK129 (Kabat) conjugated to folate (oxime)
notes: From E. coli; also called Folate lead; parent control
A word on the EC50: it is the midpoint of the concentration-response curve. The term Kd denotes the constant that tells how readily two partners part at equilibrium. As to B1, the concentration for a half-maximal effect (EC50) with human CD3 [1] was found to be 2 nM; with human CD3 [4], 2.45 nM; with cyno CD3 [5] it was 3.3 nM; with human CD3 [7] it was 2.31 nM; in the assay with human CD3 [8], 2.78 nM; with human CD3 [10] it was 1.69 nM. In addition, the EC50 with cyno CD3 [11] stood at 1.41 nM; in assay [13], 44.5 nM; in the assay with cyno CD3 [14], 2.05 nM. Also, the results for the Bmax (in [2]; with cyno CD3 [9]; in the assay with human CD3 [15]) were 101000, 25700 and 30100, respectively. In addition, the dissociation constant (Kd) in [2] worked out at 1.97 nM; with cyno CD3 [9], 2.69 nM; with human CD3 [15], 1.53 nM. For the same molecule, the CD3 binding affinity in the assay with human CD3 [3] was found to be 1.69 nM. The Affinity ratio (FRα:CD3) in assay [6] turned out to be 35. This molecule also yielded an FRα binding affinity in assay [12] of 59.6 nM.

B2: Fab1-HK129-LL157-5KPEG-Folate (Fab, V domains shown)
VH: B1 VH
VL: B1 VL
modifications: pAF at LL157 (Kabat); 5K PEG-folate conjugated, and the label does not say at one site or both; pAF at HK129 (Kabat); 5K PEG-folate conjugated, and the label does not say at one site or both
B2: the “IC50, killing of human M2 macrophages with human T-cells, 50 nM folic acid” value in the assay with Folate receptor beta was found to be 0.112 nM.

B3: Fab10-HK129-LL157-BiFolate-Bi5KPEG (Fab, V domains shown)
VH: B1 VH with N30S
VL: B1 VL with V38F, T60V
modifications: pAF at LL157 (Kabat) conjugated to a bifunctional linker carrying folate and 5K PEG (oxime); pAF at HK129 (Kabat) conjugated to a bifunctional linker carrying folate and 5K PEG (oxime)
B3 returned a concentration giving a half-maximal response (EC50) with human CD3 [16] of 6310 nM.

B4: Fab1-HK129-LL157-Folate (Fab, V domains shown)
VH: B1 VH
VL: B1 VL
modifications: pAF at LL157 (Kabat); folate conjugated, and the label does not say at one site or both; pAF at HK129 (Kabat); folate conjugated, and the label does not say at one site or both
For B4, the “IC50, killing of human M2 macrophages with human T-cells, 50 nM folic acid” value with Folate receptor beta was determined as 0.0012 nM.

B5: Fab1-HK129-LL157-BiFolate-Bi5KPEG (Fab, V domains shown)
VH: B1 VH
VL: B1 VL
modifications: pAF at LL157 (Kabat) conjugated to a bifunctional linker carrying folate and 5K PEG (oxime); pAF at HK129 (Kabat) conjugated to a bifunctional linker carrying folate and 5K PEG (oxime)
notes: From E. coli; carries two folates and two 5K PEG; also called Fab1-HK129-LL157-Bi5KPEG-BiFolate
As to B5, the EC50 with human CD3 [1] is 7.5 nM; with human CD3 [16], 5.7 nM. For the same molecule, the values for the Bmax (in [2]; with cyno CD3 [9]; with human CD3 [15]) were 83100, 13200 and 15300, respectively. Besides, the equilibrium dissociation constant (Kd) was 2.28 nM in assay [2], 5.01 nM with cyno CD3 [9] and 3.34 nM in the assay with human CD3 [15]. Further, the “fold lower binding affinity (vs the non-pegylated version)” value in the assay with human CD3 [17] is around 5 fold.

B6: Fab9-HK129-LL157-BiFolate-Bi5KPEG (Fab, V domains shown)
VH: B1 VH with A49G, I80S
VL: B1 VL with V38F, T60V
modifications: pAF at LL157 (Kabat) conjugated to a bifunctional linker carrying folate and 5K PEG (oxime); pAF at HK129 (Kabat) conjugated to a bifunctional linker carrying folate and 5K PEG (oxime)
In the assay with human CD3 [16], B6 showed an EC50 of 340 nM.

B7: Fab20-HK129-Folate (Fab, V domains shown)
VH: B1 VH with N35H
VL: B1 VL with K55N
modifications: pAF at HK129 (Kabat) conjugated to folate (oxime)
Take B7: in the assay with human CD3 [18], the binding result is reported as “no binding (tested: 1000 nM)”.

B8: humanized anti-CD3 Fab vH1.2 + vL1.0 (Fab, V domains shown)
VH: B1 VH
VL: B1 VL with V38F, G48T, G51Y, G59W
notes: it has no Fab number; HEK293 supernatant; also called antibody with vL1.0 light chain and vH1.2
Turning to B8, the binding result in the assay with human CD3 [19] is “no binding”.

B9: Fab19-HK129-Folate (Fab, V domains shown)
VH: B1 VH with N35H
VL: B1 VL
modifications: pAF at HK129 (Kabat) conjugated to folate (oxime)
Consider B9, for which the binding result with human CD3 [18] is on record as “no binding (tested: 1000 nM)”.

B10: Fab14 (Fab, V domains shown)
VH: B1 VH with A49G, I80S, V99A
VL: B1 VL with V38F, T60V
notes: distinct from m37 (Fab14-HK129-Folate); also called Fab14 (vH2.5 / vL2.1), wild type from HEK293
By EC50 (read off the curve) is commonly meant the concentration at which the effect is half-maximal. As for B10, the “EC50 (read off the curve)” value was around 10 nM in the assay with cyno CD3 [20] and around 5 nM with human CD3 [21].

B11: Fab11-HK129-Folate (Fab, V domains shown)
VH: B1 VH with N30S, A49G, I80S
VL: B1 VL with V38F, G48T, G51Y, G59W
modifications: pAF at HK129 (Kabat) conjugated to folate (oxime)
As for B11, the binding result with human CD3 [18] is given as “no binding (tested: 1000 nM)”.

B12: Fab1 wildtype (vH1.2+CH1 / vL1.2+CL), humanized anti-CD3 SP34 (Fab, V domains shown)
VH: B1 VH
VL: B1 VL
notes: also called Fab1-WT; vH1.2+vL1.2
As for B12, the 50% effective concentration (EC50 (read off the curve)) with cyno CD3 [20] is around 2 nM; in the assay with human CD3 [21], around 0.8 nM; in the assay with cyno CD3 [22] it was around 0.6 nM; with human CD3 [23] it was around 0.7 nM. Besides, the figures for the 50% effective concentration (EC50) with human CD3 [10] and in the assay with cyno CD3 [14] were 0.93 nM and 0.75 nM, respectively.
